[ ]: non-standard residue; d: D form. dNle = CCCC[C@@H](N)C(=O)O; Ahx = NCCCCCC(=O)O; βAla = NCCC(=O)O
B1: Compound 9 (peptide)
peptide: Ac-[dL][dNle][dR][dS][dV][dR][dL][dR][dV]G[dL][dR][dK][dR][dR][dR][dR][dR][dR][dR]-NH2
SMILES: CCCC[C@@H](NC(=O)[C@@H](CC(C)C)NC(C)=O)C(=O)N[C@H](CCCNC(=N)N)C(=O)N[C@H](CO)C(=O)N[C@@H](C(=O)N[C@H](CCCNC(=N)N)C(=O)N[C@H](CC(C)C)C(=O)N[C@H](CCCNC(=N)N)C(=O)N[C@@H](C(=O)NCC(=O)N[C@H](CC(C)C)C(=O)N[C@H](CCCNC(=N)N)C(=O)N[C@H](CCCCN)C(=O)N[C@H](CCCNC(=N)N)C(=O)N[C@H](CCCNC(=N)N)C(=O)N[C@H](CCCNC(=N)N)C(=O)N[C@H](CCCNC(=N)N)C(=O)N[C@H](CCCNC(=N)N)C(=O)N[C@H](CCCNC(=N)N)C(=O)N[C@H](CCCNC(=N)N)C(N)=O)C(C)C)C(C)C
B2: Compound 23 (peptide)
peptide: Ac-[dL][dNle][dR][dA][dV][dR][dL][dR][dV][βAla][dL][dR][Ahx][dR][Ahx][dR][Ahx][dR][Ahx][dR][Ahx][dR]-NH2
SMILES: CCCC[C@@H](NC(=O)[C@@H](CC(C)C)NC(C)=O)C(=O)N[C@H](CCCNC(=N)N)C(=O)N[C@H](C)C(=O)N[C@@H](C(=O)N[C@H](CCCNC(=N)N)C(=O)N[C@H](CC(C)C)C(=O)N[C@H](CCCNC(=N)N)C(=O)N[C@@H](C(=O)NCCC(=O)N[C@H](CC(C)C)C(=O)N[C@H](CCCNC(=N)N)C(=O)NCCCCCC(=O)N[C@H](CCCNC(=N)N)C(=O)NCCCCCC(=O)N[C@H](CCCNC(=N)N)C(=O)NCCCCCC(=O)N[C@H](CCCNC(=N)N)C(=O)NCCCCCC(=O)N[C@H](CCCNC(=N)N)C(=O)NCCCCCC(=O)N[C@H](CCCNC(=N)N)C(N)=O)C(C)C)C(C)C
B3: Compound 25 (peptide)
peptide: Ac-[dL][dNle][dR][dS][dV][dR][dL][dR][dV]G[dL][dR][Ahx][dR][Ahx][dR][Ahx][dR][Ahx][dR][Ahx][dR]-NH2
SMILES: CCCC[C@@H](NC(=O)[C@@H](CC(C)C)NC(C)=O)C(=O)N[C@H](CCCNC(=N)N)C(=O)N[C@H](CO)C(=O)N[C@@H](C(=O)N[C@H](CCCNC(=N)N)C(=O)N[C@H](CC(C)C)C(=O)N[C@H](CCCNC(=N)N)C(=O)N[C@@H](C(=O)NCC(=O)N[C@H](CC(C)C)C(=O)N[C@H](CCCNC(=N)N)C(=O)NCCCCCC(=O)N[C@H](CCCNC(=N)N)C(=O)NCCCCCC(=O)N[C@H](CCCNC(=N)N)C(=O)NCCCCCC(=O)N[C@H](CCCNC(=N)N)C(=O)NCCCCCC(=O)N[C@H](CCCNC(=N)N)C(=O)NCCCCCC(=O)N[C@H](CCCNC(=N)N)C(N)=O)C(C)C)C(C)C
B4: Compound 11 (peptide)
peptide: Ac-[dL][dNle][dR]G[dV][dR][dL][dR][dV]G[dL][dR][dK][dR][dR][dR][dR]G[dY]-NH2
SMILES: CCCC[C@@H](NC(=O)[C@@H](CC(C)C)NC(C)=O)C(=O)N[C@H](CCCNC(=N)N)C(=O)NCC(=O)N[C@@H](C(=O)N[C@H](CCCNC(=N)N)C(=O)N[C@H](CC(C)C)C(=O)N[C@H](CCCNC(=N)N)C(=O)N[C@@H](C(=O)NCC(=O)N[C@H](CC(C)C)C(=O)N[C@H](CCCNC(=N)N)C(=O)N[C@H](CCCCN)C(=O)N[C@H](CCCNC(=N)N)C(=O)N[C@H](CCCNC(=N)N)C(=O)N[C@H](CCCNC(=N)N)C(=O)N[C@H](CCCNC(=N)N)C(=O)NCC(=O)N[C@H](Cc1ccc(O)cc1)C(N)=O)C(C)C)C(C)C
B5: Compound 24 (peptide)
peptide: Ac-[dL][dNle][dR][dA][dV][dR][dL][dR][dV][βAla][dL][dR][Ahx][dR][Ahx][dR][Ahx][dR][Ahx][dR][Ahx][dR][Ahx][dY]-NH2
SMILES: CCCC[C@@H](NC(=O)[C@@H](CC(C)C)NC(C)=O)C(=O)N[C@H](CCCNC(=N)N)C(=O)N[C@H](C)C(=O)N[C@@H](C(=O)N[C@H](CCCNC(=N)N)C(=O)N[C@H](CC(C)C)C(=O)N[C@H](CCCNC(=N)N)C(=O)N[C@@H](C(=O)NCCC(=O)N[C@H](CC(C)C)C(=O)N[C@H](CCCNC(=N)N)C(=O)NCCCCCC(=O)N[C@H](CCCNC(=N)N)C(=O)NCCCCCC(=O)N[C@H](CCCNC(=N)N)C(=O)NCCCCCC(=O)N[C@H](CCCNC(=N)N)C(=O)NCCCCCC(=O)N[C@H](CCCNC(=N)N)C(=O)NCCCCCC(=O)N[C@H](CCCNC(=N)N)C(=O)NCCCCCC(=O)N[C@H](Cc1ccc(O)cc1)C(N)=O)C(C)C)C(C)C

molecular target: human RAD51 (human) (UniProt Q06609); assay: cell-based or functional assay
Sequence (Q06609 2-339 limits assumed): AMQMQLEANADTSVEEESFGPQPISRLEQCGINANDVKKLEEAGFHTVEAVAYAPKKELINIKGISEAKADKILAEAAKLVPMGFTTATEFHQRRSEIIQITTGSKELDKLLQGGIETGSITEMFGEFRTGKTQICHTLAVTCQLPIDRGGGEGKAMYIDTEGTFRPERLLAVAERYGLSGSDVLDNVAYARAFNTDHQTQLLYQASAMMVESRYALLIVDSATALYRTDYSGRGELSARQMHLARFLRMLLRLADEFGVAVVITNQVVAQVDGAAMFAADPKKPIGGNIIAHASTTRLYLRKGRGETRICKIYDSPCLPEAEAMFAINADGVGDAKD

IC50 | Binder
20 µM | B1
20.6 µM | B2
14 µM | B3
9 µM | B4
6.2 µM | B5
